# Where “and” joins values, the source holds several entries; their conditions need not be identical. Identical values can stand only once.
# Target: the molecule itself
# Assay: crystal structure; Act2 alone; hanging drop, 0.1 M sodium formate pH 7.0, 12% PEG 3,350, room temperature; space group P 41 21 2; two molecules in the asymmetric unit; tetramer from crystal packing
protein,measurement,value
"Syntrophomonas wolfei Göttingen Act2 (Swol_0675), acetyl-CoA acetyltransferase (enzyme, Act2, acetyl-CoA acetyltransferase encoded by the gene Swol_0675 of Syntrophomonas wolfei subsp. wolfei strain Göttingen; synthesized gene cloned into pMAPLe4; The asymmetric unit holds a homodimer; also called acetyl-CoA transferase; acyl-CoA transferase paralog; source: E. coli BL21-Gold (DE3), purified (NiNTA, TEV cleavage, Superdex 200 SEC); not shown: His6, N-terminal, cleaved) MAEINEVVVVGMARTPIGRYLGGLASVRANDLAIIAANAAIERAGVDPGIIDEIVGATCLHAGNGSLPPRIIGMKVGLPVRSGSCMVSQNCASGMRATEIACQNIMLGKTDISLVTAVESMSNIPYLLQQARSGYRMGDGKVQDAMLSDGLVCQLAGGHMGMTAENIAEKYGITREECDALALTSHQNAVKAVDEGIFDREIVPVVIKSKKGDKVISKDEHPIRGASLETMAKLPPAFKKGGVVTAANASGINDCAAAAVFMSKKKCEELGLKPLMKLVGICSEGVDAKVMGLGPAVAMPKVLKQAGWKYEDVDYWEVNEAFAAQVLGVVRMLKEEAGIELDFSKTNHNGSGIGLGHPVGATGLRIIVSMYYELERLGLTKGGASLCVGGGSAMASLWTRDI",stoichiometry N,2 and 4

# Source: publication PMC9676460, “Dynamic acylome reveals metabolite driven modifications in Syntrophomonas wolfei” (Frontiers in Microbiology, 2022)
